Values joined by “and” are separate entries in the source; they are usually repeats but may differ in a detail not shown here. Equal entries are not always repeated.

Usually stoichiometry N stands for the number of molecules, sites or subunits per partner or assembly.

This data set concerns the molecule itself.

B1: RXRα (protein of Supplementary Figure S1f; tetramer and dimer) (natural protein)
chain: MDTKHFLPLDFSTQVNSSLTSPTGRGSMAAPSLHPSLGPGIGSPGQLHSPISTLSSPINGMGPPFSVISSPMGPHSMSVPTTPTLGFSTGSPQLSSPMNPVSSSEDIKPPLGLNGVLKVPAHPSGNMASFTKHICAICGDRSSGKHYGVYSCEGCKGFFKRTVRKDLTYTCRDNKDCLIDKRQRNRCQYCRYQKCLAMGMKREAVQEERQRGKDRNENEVESTSSANEDMPVERILEAELAVEPKTETYVEANMGLNPSSPNDPVTNICQAADKQLFTLVEWAKRIPHFSELPLDDQVILLRAGWNELLIASFSHRSIAVKDGILLATGLHVHRNSAHSAGVGAIFDRVLTELVSKMRDMQMDKTELGCLRAIVLFNPDSKGLSNPAEVEALREKVYASLEAYCKHKYPEQPGRFAKLLLRLPALRSIGLKCLEHLFFFKLIGDTPIDTFLMEMLEAPHQMT
Consider B1, for which the “stoichiometry N” value was 4 and 2.

The values are drawn from publication PMC5735301 (Oncogene, 2017).
